{"source": "paper PMC5727384", "about": "“A pH-gated conformational switch regulates the phosphatase activity of bifunctional HisKA-family histidine kinases” (Nature Communications, 2017)", "molecules": {"B1": {"name": "DHp domain of HK853 (HK853^DHp), wild type, residues 250–315 (domain or fragment, Thermotoga maritima, UniProt Q9WZV7 250-315, looked up)", "chain": "MKTEFIANISHELRTPLTAIKAYAETIYNSLGELDLSTLKEFLEVIIDQSNHLENLLNELLDFSRL", "notes": "Histidine kinase HK853, Thermotoga maritima, dimerization and histidine-containing phosphotransfer (DHp) domain, residues 250–315; also called wild-type HK853^DHp; not shown: His6, N-terminal, cleaved; MBP, N-terminal, cleaved"}, "B2": {"name": "H260A mutant of the DHp domain of HK853 (H260A HK853^DHp), residues 250–315 (domain or fragment, Thermotoga maritima, UniProt Q9WZV7 250-315, looked up)", "chain": "MKTEFIANISAELRTPLTAIKAYAETIYNSLGELDLSTLKEFLEVIIDQSNHLENLLNELLDFSRL", "notes": "Histidine kinase HK853, Thermotoga maritima, DHp domain, residues 250–315, with H260A; not shown: His6, N-terminal, cleaved; MBP, N-terminal, cleaved"}, "B3": {"name": "T264A mutant of the DHp domain of HK853 (T264A HK853^DHp), residues 250–315 (domain or fragment, Thermotoga maritima, UniProt Q9WZV7 250-315, looked up)", "chain": "MKTEFIANISHELRAPLTAIKAYAETIYNSLGELDLSTLKEFLEVIIDQSNHLENLLNELLDFSRL", "notes": "Histidine kinase HK853, Thermotoga maritima, DHp domain, residues 250–315, with T264A; also called T264A HK853 mutant; not shown: His6, N-terminal, cleaved; MBP, N-terminal, cleaved"}, "B4": {"name": "Cytoplasmic portion of HK853 (HK853^cp), wild type, residues 232–489 (domain or fragment, Thermotoga maritima, UniProt Q9WZV7 232-489, looked up)", "chain": "VENVTESKELERLKRIDRMKTEFIANISHELRTPLTAIKAYAETIYNSLGELDLSTLKEFLEVIIDQSNHLENLLNELLDFSRLERKSLQINREKVDLCDLVESAVNAIKEFASSHNVNVLFESNVPCPVEAYIDPTRIRQVLLNLLNNGVKYSKKDAPDKYVKVILDEKDGGVLIIVEDNGIGIPDHAKDRIFEQFYRVDSSLTYEVPGTGLGLAITKEIVELHGGRIWVESEVGKGSRFFVWIPKDRAGEDNRQDN", "notes": "Histidine kinase HK853, Thermotoga maritima, cytoplasmic portion (DHp and CA domains), residues 232–489; Crystallised with AMPPNP, which was captured as ADP; also called wild-type HK853^cp; source: E. coli BL21(DE3) Gold, purified (ammonium sulfate precipitation, anion-exchange, size-exclusion)"}, "B5": {"name": "BeF3−-RR468 (BeF3−-conjugated form of the response regulator RR468 from Thermotoga maritima) (natural protein)", "chain": "MSKKVLLVDDSAVLRKIVSFNLKKEGYEVIEAENGQIALEKLSEFTPDLIVLDIMMPVMDGFTVLKKLQEKEEWKRIPVIVLTAKGGEEDESLALSLGARKVMRKPFSPSQFIEEVKHLLNE", "modifications": "BeF3− on D53 (beryllium atom forming a covalent bond with the phosphate-accepting residue D53; phosphoryl analog)", "notes": "Response regulator RR468, cognate response regulator of HK853, Thermotoga maritima; Generated by adding 5 mM BeCl2 and 50 mM NaF to RR468 (NMR) or 5 mM BeCl2 and 30 mM NaF (crystallisation); Mg2+ in the active site; source: E. coli BL21(DE3) Gold, purified (incubation at 60 °C, anion-exchange, size-exclusion); BeF3− added as BeCl2 and NaF"}, "B6": {"name": "T264A mutant of the cytoplasmic portion of HK853 (T264A HK853^cp) (domain or fragment, Thermotoga maritima, UniProt Q9WZV7 232-489, looked up)", "chain": "VENVTESKELERLKRIDRMKTEFIANISHELRAPLTAIKAYAETIYNSLGELDLSTLKEFLEVIIDQSNHLENLLNELLDFSRLERKSLQINREKVDLCDLVESAVNAIKEFASSHNVNVLFESNVPCPVEAYIDPTRIRQVLLNLLNNGVKYSKKDAPDKYVKVILDEKDGGVLIIVEDNGIGIPDHAKDRIFEQFYRVDSSLTYEVPGTGLGLAITKEIVELHGGRIWVESEVGKGSRFFVWIPKDRAGEDNRQDN", "notes": "Histidine kinase HK853, Thermotoga maritima, cytoplasmic portion (residues 232–489 as stated for HK853^cp), with T264A; also called HK853^cp T264A mutant"}}, "key": {"[1]": {"target": "T1, HK853^cp-BeF3 ^−-RR468 complex (nucleotide site of HK853^cp) (Thermotoga maritima, UniProt Q9WZV7)", "T1 construct": "gene TM_0853; HK853 cytoplasmic portion (DHp and CA domains, residues 232-489), with RR468; heterotetramer of two HK853cp and two RR468; expressed in E. coli; with Response regulator", "T1 sequence (Q9WZV7 232-489)": "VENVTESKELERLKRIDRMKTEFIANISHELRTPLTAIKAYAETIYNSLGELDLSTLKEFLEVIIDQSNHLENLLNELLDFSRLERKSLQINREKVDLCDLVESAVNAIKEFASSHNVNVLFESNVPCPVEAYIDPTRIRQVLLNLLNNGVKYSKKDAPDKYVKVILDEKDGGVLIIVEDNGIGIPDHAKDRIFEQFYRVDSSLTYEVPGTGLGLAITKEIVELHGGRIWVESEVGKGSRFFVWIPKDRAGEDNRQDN", "T1 sequence (Q9WYT9 1-122 partner)": "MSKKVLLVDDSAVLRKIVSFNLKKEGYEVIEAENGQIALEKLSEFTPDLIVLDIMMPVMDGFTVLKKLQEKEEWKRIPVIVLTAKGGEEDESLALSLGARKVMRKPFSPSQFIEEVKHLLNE", "assay": "X-ray crystal structure, […] A", "format": "binding", "conditions": "pH 5.0; Mg2+; crystallised with 4 mM AMPPNP, hydrolysed to ADP; ATP site of HK853 CA domain"}, "[2]": {"target": "T2, HK853^cp-BeF3 ^−-RR468 complex (active site of RR468) (Thermotoga maritima, UniProt Q9WYT9)", "T2 construct": "gene TM_0468", "conditions": "pH 5.0; Mg2+; covalent to D53 of RR468"}, "[3]": {"target": "T3, RR468 (Thermotoga maritima, UniProt Q9WYT9)", "T3 construct": "gene TM_0468", "conditions": "pH 7.0; Mg2+; 298 K; covalent Be bond to D53; formed from 5 mM BeCl2 and 50 mM NaF"}, "[4]": {"target": "T4, HK853^DHp-BeF3 ^−-RR468 complex (Thermotoga maritima, UniProt Q9WYT9)", "T4 construct": "gene TM_0468", "conditions": "pH 7.0; Mg2+; 298 K; covalent to D53 of RR468; 10-fold excess of HK853 DHp"}, "[5]": {"target": "B5", "assay": "NMR titration; 19F NMR of BeF3−-RR468, HK853^DHp or mutants added at a concentration 10-fold higher than BeF3−-RR468; pH 7.0; 20 mM HEPES, 50 mM KCl, 10 mM MgCl2; 298 K", "conditions": "both partners purified"}, "[6]": {"target": "the molecule itself", "assay": "crystal structure; HK853^cp (wild type or T264A) with RR468, BeF3− and AMPPNP (captured as ADP), crystallised at pH 5.0 (citric acid, ammonium sulfate)"}, "[7]": {"target": "B4", "assay": "crystal structure; HK853^cp (wild type or T264A) with RR468, BeF3− and AMPPNP (captured as ADP), crystallised at pH 5.0 (citric acid, ammonium sulfate)", "conditions": "both partners purified"}, "[8]": {"target": "B6", "assay": "crystal structure; HK853^cp (wild type or T264A) with RR468, BeF3− and AMPPNP (captured as ADP), crystallised at pH 5.0 (citric acid, ammonium sulfate)", "conditions": "both partners purified"}}, "data": [{"molecule": "Nc1ncnc2c1ncn2[C@@H]1O[C@H](COP(=O)(O)OP(=O)(O)O)[C@@H](O)[C@H]1O", "note": "[ADP]", "values": [{"measurement": "X-ray crystal structure, 2.68 A", "setting": "[1]", "result": "The AMPPNP is captured in the hydrolyzed form of ADP"}]}, {"molecule": "[F][Be-]([F])[F]", "note": "[BeF3 ^−]", "values": [{"measurement": "X-ray crystal structure, 2.68 A", "setting": "[2]", "result": "reveals a heterotetrameric complex consisting of two HK853^cp and two BeF3 ^−-RR468"}, {"measurement": "19F NMR", "setting": "[3]", "result": "we were able to detect three broad fluorine signals from the protein-bound BeF3 ^−"}, {"measurement": "19F NMR", "setting": "[4]", "result": "indicating the formation of the HK853^DHp-BeF3 ^−-RR468 complex"}]}, {"molecule": "B1", "values": [{"measurement": "binding result", "setting": "[5]", "result": "binds"}]}, {"molecule": "B2", "values": [{"measurement": "binding result", "setting": "[5]", "result": "binds"}]}, {"molecule": "B3", "values": [{"measurement": "binding result", "setting": "[5]", "result": "binds"}]}, {"molecule": "B4", "values": [{"measurement": "binding result", "setting": "[6]", "result": "binds"}]}, {"molecule": "B5", "values": [{"measurement": "binding result", "setting": "[7]", "result": "binds"}, {"measurement": "binding result", "setting": "[8]", "result": "binds"}]}, {"molecule": "B6", "values": [{"measurement": "binding result", "setting": "[6]", "result": "binds"}]}]}
